Consider nine substances from PMC5040590.

In assay [1] the target is PDZ123 domain-HaloTag fusion on HaloLink resin (PDZ123 affinity resin) (UniProt Q62108). Briefly: PDZ123 affinity resin binding (pull-down, eluate quantified). To be noted: phosphorylated 0.5 min with 10 nM CaMKII, 0.7 mM CaCl2/3.4 μM CaM; resin 60 min at 25°C; n = 4; parent: est. 0.0079; read off a plot.
For assay [2], the target named is PDZ123 domain-HaloTag fusion on HaloLink resin (PDZ123 affinity resin) (mouse) (UniProt Q62108). Briefly: pull-down; PDZ domain-HaloTag fusions on HaloLink resin (20 µl); r-synGAP-α1 500 nM, 200 µl, 60 min, 25°C; 25 mM Tris pH 7.0, 150 mM NaCl, 1 mM MgCl2, 0.5 mM TCEP, 0.2% Tergitol, 0.5 mM EDTA; bound protein eluted, SDS-PAGE, Gel Code Blue, quantified.
Assay [3] has as its target r-synGAP-α1 (soluble, recombinant synGAP-α1, residues 103-1293) (rat).
For assay [4] the target is unchanged. Kind of assay: pull-down; as a1, with or without Ca2+/CaM during the incubation with PDZ resin (legend: 0.7 mM CaCl2/3.4 μM CaM; methods: 2.5 µM CaM and 0.5 mM CaCl2); 500 nM r-synGAP-α1, 60 min, 25°C.
Assay [5] has the same target. Briefly: SPR; 'competition in solution': 25 nM r-synGAP-α1 pre-equilibrated with 0-10 µM soluble PDZ domain; free r-synGAP-α1 captured on the same PDZ domain amine-coupled to a CM5 chip; Biacore T200, HBS-EP+, 25°C; single-site fit.
Assay [6] concerns the target CaM-Sepharose 4B (calmodulin on Sepharose resin) (UniProt P62157). Kind of assay: pull-down; equilibrium binding of purified synGAP (1-500 nM, 300 µl) to 50 µl CaM-Sepharose 4B, 60 min; 50 mM Tris pH 7.5, 200 mM NaCl, 5 mM TCEP, 2 mM CaCl2; bound protein by quantitative immunoblot; hyperbolic fit.
Assay [7] concerns the target calmodulin (CaM), with Ca2+ (UniProt P62157). Kind of assay: SPR; CaM amine-coupled to a CM5 chip (50 RU); synGAP injected in HBS-EP+ with 10 mM CaCl2, 25°C, 100 µl/min; equilibrium analysis.
Assay [8] has as its target PDZ3 of PSD-95 (residues 302-402), soluble recombinant (mouse) (UniProt Q62108). Briefly: SPR; conventional Biacore assay: varying concentrations of r-synGAP-α1 applied to a chip with immobilised PDZ domain; one experiment.

As to “r-synGAP-α1 phosphorylated by CaMKII for 0.5 min S1093D; S1123D; S1283D”, the response (pmol r-synGAP-α1/pmol PDZ domain) in assay [1] was found to be 0.014.
For “r-synGAP-α1 phosphorylated by CaMKII for 0.5 min S1123D”, the response (pmol r-synGAP-α1/pmol PDZ domain) in assay [1] was 0.0099.
“r-synGAP-α1 phosphorylated by PLK2 for 10 min (domain or fragment)” displayed a decrease of binding relative to unphosphorylated r-synGAP-α1 in assay [2] of 40%.
“calmodulin (CaM), with Ca2+ (from UniProt P62157 1-149) (natural protein)”: the rate and stoichiometry of phosphorylation of r-synGAP-α1 by CDK5/p35 or CDK5/p25 in the presence of Ca2+/CaM (0.7 mM CaCl2, 3.4 μM CaM) in assay [3] was found to be 2 fold. The percent reduction of binding of r-synGAP-α1 to PDZ3 with Ca2+/CaM in assay [4] came to 25%.
Turning to “r-synGAP-α1 phosphorylated by CaMKII for 0.5 min S1283D”, the response (pmol r-synGAP-α1/pmol PDZ domain) in assay [1] worked out at 0.011.
Consider “r-synGAP-α1 phosphorylated by CaMKII for 0.5 min S1093D; S1123D”, for which the response (pmol r-synGAP-α1/pmol PDZ domain) in assay [1] came to 0.0083.
Turning to “PDZ3 of PSD-95 (residues 302-402), soluble recombinant (from UniProt Q62108 302-402) (domain or fragment)”, the Kd in assay [5] turned out to be 620 nM.
Turning to “PDZ2 of PSD-95 (residues 155-249), soluble recombinant (from UniProt Q62108 155-249) (domain or fragment)”, the dissociation constant Kd in assay [5] stood at 1500 nM.
For the substance “r-synGAP-α1 (soluble, recombinant synGAP-α1, residues 103-1293) (domain or fragment)”, the Kd in assay [6] came to 31 nM; in assay [7], 9 nM; in assay [8], 730 nM. Moreover, the amount bound per individual PDZ domain, relative to PDZ1 or PDZ2 alone in assay [2] is 4 fold. The substance also had an amount bound per individual PDZ domain, relative to PDZ3 alone in assay [2] of 2 fold.
